Reference: article PMC3539332

Target: Arfrp1-His (UniProt Q13795)
Test: liposome flotation; liposomes incubated with Arfrp1-His (1.5 μg) and 100 μM GDP or GTPγS, with or without 1 μg MBP-Vangl2 cytosolic domain, in HKM buffer at room temperature for 45 min, then 2 μg purified AP-1 for 1 hr; sucrose flotation; γ1-adaptin in the top fraction by immunoblot, normalised to lipid

Chain of UniProt Q13795 (Q13795 whole entry, the tested form may be a part): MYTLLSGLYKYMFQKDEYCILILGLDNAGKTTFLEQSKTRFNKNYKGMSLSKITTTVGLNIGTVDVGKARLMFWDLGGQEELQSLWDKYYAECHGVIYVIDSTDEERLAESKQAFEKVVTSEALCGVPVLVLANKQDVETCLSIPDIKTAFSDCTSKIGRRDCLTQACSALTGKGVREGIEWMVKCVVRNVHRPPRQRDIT

For “purified AP-1 complex (from UniProt Q2KJ81 1-423)”, the fold change of membrane recruitment of AP-1 with both Vangl2 cytosolic domain and Arfrp1-GTPγS was 3 fold.
